Data reported in patent US20170029507A1 (IMAGINAB, published 2017).

What was measured:
[1] = target: T1, purified recombinant human CD8 protein (human, UniProt P01732 22-182, limits assumed); assay: ELISA, plate coated with rhCD8, transfection supernatant serially diluted from 0.5 µg/ml, HRP goat anti-human IgG (Fc-specific), TMB, 405 nm
T1 construct: also called rhCD8; hCD8
Description: (§1) The concentration of the variants UAb_Mb1b_CD8, and IAb_Mb1a_CD8 were normalized to […] the concentration of IAb_MB2a_CD8 (0.5 μg/ml) based on the quantitative ELISA.
(§2) 96 well plates were coated with rhCD8 antigen and incubated with supernatants obtained from the transient transfection. Binding was detected with HRP-conjugated goat anti-human (Fc-specific) IgG and TMB substrate. The absorbance measured at 405 nm. Dilutions were done in triplicate. Data is shown as mean of relative absorbance.

[2] = target: T1, purified recombinant human CD8 protein; assay: ELISA, plate coated with rhCD8, transfection supernatant at 0.5 µg/ml and serially diluted, HRP goat anti-human IgG (Fc-specific), TMB, 405 nm
Description: as §1, §2

T1 sequence (P01732 22-182 limits assumed): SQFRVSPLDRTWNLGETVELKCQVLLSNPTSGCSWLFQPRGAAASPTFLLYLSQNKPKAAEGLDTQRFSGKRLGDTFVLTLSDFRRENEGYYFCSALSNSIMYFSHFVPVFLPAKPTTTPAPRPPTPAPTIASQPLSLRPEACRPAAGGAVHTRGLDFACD

Row | Binder | EC50 (read off the curve) [1] | EC50 (read off the curve) [2]
1 | IAb_Mb2c_CD8 (other, Tested as CHO-K1 transfection supernatant; also called variant 2c) QVQLVQSGAEVKKPGATVKISCKVSGFNIKDTYIHFVQQAPGKGLEWIGRIDPANDNTLYASKFQGKATITADTSTDTAYMELSSLRSGDTAVYYCGRGYGYYVFDHWGQGTLVTVSSGSTSGGGSGGGSGGGGSSDVQITQSPSSLSASVGDRVTITCRTSRSISQYLAWYQQKPGKVPKLLIYSGSTLQSGVPSRFSGSGSGTDFTLTISSLQPEDVATYYCQQHNENPLTFGGGTKVEIKEPKSCDKTHTCPPCGGGSSGGGSGGQPREPQVYTLPPSRDELTKNQVSLTCLVKGFYPSDIAVEWESNGQPENNYKTTPPVLDSDGSFFLYSKLTVDKSRWQQGNVFSCSVMHEALHNHYTQKSLSLSPGK | ~0.04 µg/mL | 
2 | IAb_Mb2a_CD8 (other, Tested as CHO-K1 transfection supernatant; also called variant 2a) EVQLVESGGGLVQPGGSLRLSCAASGFNIKDTYIHFVRQAPGKGLEWIGRIDPANDNTLYASKFQGKATISADTSKNTAYLQMNSLRAGDTAVYYCGRGYGYYVFDHWGQGTLVTVSSGSTSGGGSGGGSGGGGSSDVQITQSPSSLSASVGDRVTITCRTSRSISQYLAWYQQKPGKVPKLLIYSGSTLQSGVPSRFSGSGSGTDFTLTISSLQPEDVATYYCQQHNENPLTFGGGTKVEIKEPKSCDKTHTCPPCGGGSSGGGSGGQPREPQVYTLPPSRDELTKNQVSLTCLVKGFYPSDIAVEWESNGQPENNYKTTPPVLDSDGSFFLYSKLTVDKSRWQQGNVFSCSVMHEALHNHYTQKSLSLSPGK |  | ~0.02 µg/mL
